According to US20240207421A1, “NERVE TARGETING PEPTIDES AND METHODS OF USE” (ALUME BIOSCIENCES, INC., priority 2020, published 2024):

B1: … (peptide)
peptide: CSKHNHSRC
B2: … (peptide)
peptide: GGYDLPWANWQN
B3: … (peptide)
peptide: CMNKIQRDC
B4: QGWFRHS (peptide)
peptide: QGWFRHS
B5: … (peptide)
peptide: APKVTNARPTQL
B6: … (peptide)
peptide: GKPDHRLVSLWR
B7: … (peptide)
peptide: CSHHKLKQC
B8: … (peptide)
peptide: KALGYSLVGGEW
B9: IPVGERK (peptide)
peptide: IPVGERK
B10: WGLKLPH (peptide)
peptide: WGLKLPH

Assays:
[1] = molecular target: Human Myelin Basic Protein (Homo sapiens, UniProt P02686); experiment: Phage display library screening (Example 2, Python script analysis), binding to Human Myelin Basic Protein; parameters: Enzo 200-606-M001 from human; purchased Enzo 200-606-M001; host or cells: human brain (tissue-derived); settings: R3 Myelin Basic Protein; combined unique sequence count, Python/R script analysis
Protocol: Phage display library screens were used to identify peptides that bind to target proteins (including specific laminin trimers) that are expressed in human nerves, as described in Table 3. These screens were also carried out to identify peptides that could bind selectively to nerves versus muscle. Such peptides could therefore be useful for systemic in-vivo labeling of nerves during fluorescence assisted surgery. Specifically, m 13 phage libraries expressing 7 or 12 random amino acid peptides, or a cyclic peptide CX7C, on the N-terminus of the minor coat protein pIII (New England Biolabs; NEB) were processed through multiple rounds of selection for binding to target proteins expressed in nerves, or to excised human nerves, nerve extracts, or muscle, as described further below.
For screening against the specified target proteins in Table 1, including LN211, LN411, LN421, and LN521, the phage library was processed by up to 4 binding and wash cycles. For selection, phage libraries were incubated for up to 24 hours at 4° C. in 96 well plates that had been coated with one of the target proteins. Plates were then washed with PBS and phage were eluted using 0.2M glycine pH 2.0. Phage supernatants where then neutralized with Tris pH 9.0 prior to plating on TGI bacteria and LB agar plates. Colonies were counted to determine titer followed by DNA preparation of pools of phage and NextGen sequencing. After rounds of selection, phage were pooled and amplified for iterative selection. Phage that were bound at each round were sequenced. NextGen sequencing of pools after 2, 3 and 4 rounds of selection was used to isolate candidate sequences that were analyzed further to identify those that specifically bound each unique target protein.
Python Script Analysis: For all NEB sequence datasets, a python script was used to translate, trim, and filter the peptide sequences. The script translated the nucleotide sequences, translating amber codons as glutamine in peptide sequences, and then trimmed the end sequences that come from the vector. Secondly, the script combined the unique counts of trimmed peptides with identical sequences. […] Another python script was used to group peptides from different assays according to protein target (Myelin Protein Zero, Myelin Proteolipid Protein, Myelin Basic Protein, and Nidogen-2) and also combine the unique sequence counts for each peptide. An R script was written to merge the peptide sequences from different data files and determine peptides specific for each protein target but absent from different protein binding datasets. Peptide sequences were ranked by unique sequence count.

Laminin 421/521 = experiment: phage display, NGS count

Chain of Human Myelin Basic Protein (P02686 134-304): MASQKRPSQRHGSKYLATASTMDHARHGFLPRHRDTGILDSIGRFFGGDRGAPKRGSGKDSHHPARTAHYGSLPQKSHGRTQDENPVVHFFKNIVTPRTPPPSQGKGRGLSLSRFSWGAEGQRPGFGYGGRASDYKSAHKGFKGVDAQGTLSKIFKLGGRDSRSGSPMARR

| Molecule | Count [1] | Count (Laminin 421/521) |
| --- | --- | --- |
| AAGQRSF (R3 Myelin Basic Protein-binding peptide) | 7 | – |
| AGSLLSL (R3 Myelin Basic Protein-binding peptide) | 6 | – |
| AILTRPP (R3 Myelin Basic Protein-binding peptide) | 7 | – |
| AIPPRKL (R3 Myelin Basic Protein-binding peptide) | 6 | – |
| AISWKGF (R3 Myelin Basic Protein-binding peptide) | 6 | – |
| AKFTMWV (R3 Myelin Basic Protein-binding peptide) | 6 | – |
| ALGTRPL (R3 Myelin Basic Protein-binding peptide) | 7 | – |
| ALRDTRV (R3 Myelin Basic Protein-binding peptide) | 6 | – |
| ALYNQMT (R3 Myelin Basic Protein-binding peptide) | 6 | – |
| ANLSRSV (R3 Myelin Basic Protein-binding peptide) | 9 | – |
| AQFLTIY (R3 Myelin Basic Protein-binding peptide) | 6 | – |
| AQLGAFR (R3 Myelin Basic Protein-binding peptide) | 6 | – |
| ARVPNPL (R3 Myelin Basic Protein-binding peptide) | 6 | – |
| ASNTSKG (R3 Myelin Basic Protein-binding peptide) | 7 | – |
| AVRQTTM (R3 Myelin Basic Protein-binding peptide) | 7 | – |
| CEDSDKSVC (R3 Myelin Basic Protein-binding peptide) | 7 | – |
| CNRVPFKQC (R3 Myelin Basic Protein-binding peptide) | 7 | – |
| CPRMNNPLC (R3 Myelin Basic Protein-binding peptide) | 7 | – |
| CTMTNQYDC (R3 Myelin Basic Protein-binding peptide) | 6 | – |
| DSQEKSV (R3 Myelin Basic Protein-binding peptide) | 6 | – |
| DSYLLSA (R3 Myelin Basic Protein-binding peptide) | 8 | – |

| Molecule | Count [1] | Count (Laminin 421/521) |
| --- | --- | --- |
| DVRIWTL (R3 Myelin Basic Protein-binding peptide) | 6 | – |
| DVVKDVI (R3 Myelin Basic Protein-binding peptide) | 7 | – |
| ELKSLRF (R3 Myelin Basic Protein-binding peptide) | 6 | – |
| ESKSPRE (R3 Myelin Basic Protein-binding peptide) | 6 | – |
| ESPYPHS (R3 Myelin Basic Protein-binding peptide) | 7 | – |
| ETHYKIA (R3 Myelin Basic Protein-binding peptide) | 6 | – |
| FDLLARK (R3 Myelin Basic Protein-binding peptide) | 6 | – |
| FKLPWAS (R3 Myelin Basic Protein-binding peptide) | 7 | – |
| FLNQAPT (R3 Myelin Basic Protein-binding peptide) | 7 | – |
| FQLSYET (R3 Myelin Basic Protein-binding peptide) | 6 | – |
| FSAGVGK (R3 Myelin Basic Protein-binding peptide) | 7 | – |
| FSARTNT (R3 Myelin Basic Protein-binding peptide) | 9 | – |
| FVLPNKN (R3 Myelin Basic Protein-binding peptide) | 8 | – |
| GEPALVT (R3 Myelin Basic Protein-binding peptide) | 6 | – |
| GHSHYILGKPTA (R3 Myelin Basic Protein-binding peptide) | 7 | – |
| GPITHAI (R3 Myelin Basic Protein-binding peptide) | 7 | – |
| GPRVTPH (R3 Myelin Basic Protein-binding peptide) | 6 | – |
| GQWWKML (R3 Myelin Basic Protein-binding peptide) | 6 | – |
| GRHTDVV (R3 Myelin Basic Protein-binding peptide) | 6 | – |
| GSPYGWG (R3 Myelin Basic Protein-binding peptide) | 6 | – |
| GVAEVGL (R3 Myelin Basic Protein-binding peptide) | 6 | – |

| Molecule | Count [1] | Count (Laminin 421/521) |
| --- | --- | --- |
| HAHWARL (R3 Myelin Basic Protein-binding peptide) | 6 | – |
| HFLRPSD (R3 Myelin Basic Protein-binding peptide) | 7 | – |
| HFTFFPI (R3 Myelin Basic Protein-binding peptide) | 6 | – |
| HFYGPGP (R3 Myelin Basic Protein-binding peptide) | 9 | – |
| HLLKTHS (R3 Myelin Basic Protein-binding peptide) | 7 | – |
| HMAGVNQ (R3 Myelin Basic Protein-binding peptide) | 7 | – |
| HPDTLPQ (R3 Myelin Basic Protein-binding peptide) | 7 | – |
| HPTGTPT (R3 Myelin Basic Protein-binding peptide) | 7 | – |
| HPWLGNR (R3 Myelin Basic Protein-binding peptide) | 9 | – |
| HPWSHPN (R3 Myelin Basic Protein-binding peptide) | 6 | – |
| HQMRTML (R3 Myelin Basic Protein-binding peptide) | 6 | – |
| HQPLFPR (R3 Myelin Basic Protein-binding peptide) | 6 | – |
| HRTHLHQ (R3 Myelin Basic Protein-binding peptide) | 6 | – |
| HSGPLLP (R3 Myelin Basic Protein-binding peptide) | 6 | – |
| HSSATMS (R3 Myelin Basic Protein-binding peptide) | 6 | – |
| HTGLRSL (R3 Myelin Basic Protein-binding peptide) | 7 | – |
| HYSPNVM (R3 Myelin Basic Protein-binding peptide) | 9 | – |
| IGTRWHQ (R3 Myelin Basic Protein-binding peptide) | 6 | – |
| IILPSAQ (R3 Myelin Basic Protein-binding peptide) | 8 | – |
| INFPFAV (R3 Myelin Basic Protein-binding peptide) | 6 | – |
| IPIPYRT (R3 Myelin Basic Protein-binding peptide) | 6 | – |

| Molecule | Count [1] | Count (Laminin 421/521) |
| --- | --- | --- |
| IPYSQMP (R3 Myelin Basic Protein-binding peptide) | 6 | – |
| KGQPLFR (R3 Myelin Basic Protein-binding peptide) | 7 | – |
| KIITTKS (R3 Myelin Basic Protein-binding peptide) | 6 | – |
| KMSLAPP (R3 Myelin Basic Protein-binding peptide) | 6 | – |
| KNSIAPR (R3 Myelin Basic Protein-binding peptide) | 8 | – |
| KVHHLAR (R3 Myelin Basic Protein-binding peptide) | 6 | – |
| KYRHGAE (R3 Myelin Basic Protein-binding peptide) | 7 | – |
| LELHQNV (R3 Myelin Basic Protein-binding peptide) | 6 | – |
| LFRRVTE (R3 Myelin Basic Protein-binding peptide) | 7 | – |
| LITHPQL (R3 Myelin Basic Protein-binding peptide) | 6 | – |
| B1 | – | 295 |
| B2 | – | 497 |
| B3 | – | 131 |
| B4 | – | 121 |
| B5 | – | 147 |
| B6 | – | 309 |
| B7 | – | 359 |
| B8 | – | 134 |
| B9 | – | 124 |
| B10 | – | 117 |
